From US20210317456
pKd: −log10 of the molar value.

Tests used:
[1] = system: Immunoglobulin G (total IgG); assay: pulldown; conditions: SB18, 37C, bead partitioning
[2] = system: Immunoglobulin G (total IgG) (Homo sapiens); assay: filter
[3] = n (P) = NapdU, SB18, 5 mM MgCl2, 37 C
[4] = n (P) = 2NapdU, SB18, 5 mM MgCl2, 37 C
[5] = n (P) = NapdU, considered no binding
[6] = n (P) = 2NapdU, considered no binding

ACGATGGCGAACTCCCTGAATGCTCTTGTCTTAAGTCCCCAACA [14125-144_6]
pKd ([1]; P = NapdU): 8.13

ACGATTTTCAGTTGGATCCAGTACCTGGCTGGAGAGAA [5406-56_9]
pKd ([1]; P = NapdU): < 6.00

ACGGTACGATTTTCAGTTGGATCCAGTAC [5406-56_46]
pKd [2, 3]: 8.09

ACGGTACGATTTTCAGTTGGATCCAGTACC [5406-56_40]
pKd [2, 3]: 8.36

ACGGTACGATTTTCAGTTGGATCCAGTACCT [5406-56_34]
pKd [2, 3]: 8.47

ACGGTACGATTTTCAGTTGGATCCAGTACCTG [5406-56_28]
pKd [2, 3]: 8.44

ACGGTACGATTTTCAGTTGGATCCAGTACCTGG [5406-56_22]
pKd ([2]; n (P) = NapdU, Zorbax bead partitioning, SB18, 5 mM MgCl2, 37 C, printed sequence identical to _21 to _25, length unclear): 8.31

ACTCCACATCCAAGACTGCGGTTACCTTGTAGGCGATTATGGGCAG [5334-8_5]
pKd [2, 4]: 8.23

ACTCCCTGAATGCTCTTGTCTTAAGTCCCCAACA [14125-144_11]
pKd [2, 5]: < 6.00

ACTGCGGTTACCTTGTAGGCGATTATGGGCAG [5334-8_22]
pKd [2, 4]: 8.24

AGACTGCGGTTACCTTGTAGGCGATT [5334-8_33]
pKd [2, 6]: < 6.00

AGACTGCGGTTACCTTGTAGGCGATTAT [5334-8_32]
pKd [2, 6]: < 6.00

AGACTGCGGTTACCTTGTAGGCGATTATGG [5334-8_31]
pKd ([1]; P = 2NapdU): < 6.00

AGACTGCGGTTACCTTGTAGGCGATTATGGG [5334-8_30]
pKd ([1]; P = 2NapdU): 7.09

AGACTGCGGTTACCTTGTAGGCGATTATGGGC [5334-8_29]
pKd ([1]; P = 2NapdU): 7.81

AGACTGCGGTTACCTTGTAGGCGATTATGGGCA [5334-8_28]
pKd [2, 4]: 8.07

AGACTGCGGTTACCTTGTAGGCGATTATGGGCAG [5334-8_11]
pKd ([1]; P = 2NapdU): 8.33

ATGGCGAACTCCCTGAATGCTCTTGTC [14125-144_37]
pKd [2, 5]: < 6.00

ATGGCGAACTCCCTGAATGCTCTTGTCT [14125-144_33]
pKd [2, 5]: < 6.00

ATGGCGAACTCCCTGAATGCTCTTGTCTT [14125-144_29]
pKd [2, 3]: 7.94

ATGGCGAACTCCCTGAATGCTCTTGTCTTA [14125-144_25]
pKd [2, 3]: 8.12

ATGGCGAACTCCCTGAATGCTCTTGTCTTAA [14125-144_21]
pKd [2, 3]: 8.26

CAAGACTGCGGTTACCTTGTAGGCGATTATGGGCAG [5334-8_10]
pKd [2, 4]: 8.27

CACATCCAAGACTGCGGTTACCTTGTAGGCGATTATGGGCAG [5334-8_7]
pKd [2, 4]: 8.23

CATACGGTACGATTTTCAGTTGGATCCAGTACCTGGCTGGAGAGAA [5406-56_5]
pKd ([1]; P = NapdU): 8.10

CATCCAAGACTGCGGTTACCTTGTAGGCGATTATGGGCAG [5334-8_8]
pKd [2, 4]: 8.01

CCTCCATACGGTACGATTTTCAGTTGGATCCAGT [5406-56_19]
pKd ([1]; P = NapdU): < 6.00

CCTCCATACGGTACGATTTTCAGTTGGATCCAGTAC [5406-56_18]
pKd ([1]; P = NapdU): 7.37

CCTCCATACGGTACGATTTTCAGTTGGATCCAGTACCT [5406-56_17]
pKd ([1]; P = NapdU): 8.38

CCTCCATACGGTACGATTTTCAGTTGGATCCAGTACCTGG [5406-56_16]
pKd ([1]; P = NapdU): 8.59

CCTCCATACGGTACGATTTTCAGTTGGATCCAGTACCTGGCT [5406-56_15]
pKd ([1]; P = NapdU): 8.33

CCTCCATACGGTACGATTTTCAGTTGGATCCAGTACCTGGCTGG [5406-56_14]
pKd ([1]; P = NapdU): 8.52

CCTCCATACGGTACGATTTTCAGTTGGATCCAGTACCTGGCTGGAG [5406-56_13]
pKd ([1]; P = NapdU): 8.58

CCTCCATACGGTACGATTTTCAGTTGGATCCAGTACCTGGCTGGAGAG [5406-56_12]
pKd ([1]; P = NapdU): 8.54

CGGCACTCCACATCCAAGACTGCGGTTACCTTGT [5334-8_19]
pKd ([1]; P = 2NapdU): < 6.00

CGGCACTCCACATCCAAGACTGCGGTTACCTTGTAG [5334-8_18]
pKd [2, 6]: < 6.00

CGGCACTCCACATCCAAGACTGCGGTTACCTTGTAGGC [5334-8_17]
pKd [2, 6]: < 6.00

CGGCACTCCACATCCAAGACTGCGGTTACCTTGTAGGCGA [5334-8_16]
pKd [2, 6]: < 6.00

CGGCACTCCACATCCAAGACTGCGGTTACCTTGTAGGCGATT [5334-8_15]
pKd ([1]; P = 2NapdU): < 6.00

CGGCACTCCACATCCAAGACTGCGGTTACCTTGTAGGCGATTAT [5334-8_14]
pKd [2, 6]: < 6.00

CGGCACTCCACATCCAAGACTGCGGTTACCTTGTAGGCGATTATGG [5334-8_13]
pKd ([1]; P = 2NapdU): < 6.00

CGGCACTCCACATCCAAGACTGCGGTTACCTTGTAGGCGATTATGGGC [5334-8_12]
pKd ([1]; P = 2NapdU): 7.59

CGGTACGATTTTCAGTTGGATCCAGTAC [5406-56_47]
pKd [2, 3]: 8.24

CGGTACGATTTTCAGTTGGATCCAGTACC [5406-56_41]
pKd ([1]; P = NapdU): 8.56

CGGTACGATTTTCAGTTGGATCCAGTACCT [5406-56_35]
pKd [2, 3]: 8.47

CGGTACGATTTTCAGTTGGATCCAGTACCTG [5406-56_29]
pKd [2, 3]: 8.46

CGGTACGATTTTCAGTTGGATCCAGTACCTGG [5406-56_23]
pKd ([2]; n (P) = NapdU, SB18, 5 mM MgCl2, 37 C, sequence identical to _21 to _25): 8.26

CGGTACGATTTTCAGTTGGATCCAGTACCTGGCTGGAGAGAA [5406-56_7]
pKd ([1]; P = NapdU): 7.89

CGGTTACCTTGTAGGCGATTATGGGCAG [5334-8_26]
pKd ([1]; P = 2NapdU): < 6.00

CTGCACGATGGCGAACTCCCTGAATGCTCTTGTCTTAAGTCCCCAACA [14125-144_4]
pKd [2, 3]: 7.98

CTGCGGTTACCTTGTAGGCGATTATGGGCAG [5334-8_23]
pKd ([1]; P = 2NapdU): 8.39
